B1: Cell death abnormality protein 1 (Caenorhabditis elegans), Q9XWD6 (parent)
chain: MRLILLVLLATWQVVVDTRAPTFPDKLTQQLQQQGTTEPQGDHVCTVKTIVDDYELKKVIHTVVYNDTEQCLNPLTGFQCTVEKRGQKASYQRQLVKKEKYVKQCCDGYYQTKDHFCLPDCNPPCKKGKCIEPGKCECDPGYGGKYCASSCSVGTWGLGCSKSCDCENGANCDPELGTCICTSGFQGERCEKPCPDNKWGPNCVKSCPCQNGGKCNKEGKCVCSDGWGGEFCLNKCEEGKFGAECKFECNCQNGATCDNTNGKCICKSGYHGALCENECSVGFFGSGCTQKCDCLNNQNCDSSSGECKCIGWTGKHCDIGCSRGRFGLQCKQNCTCPGLEFSDSNASCDAKTGQCQCESGYKGPKCDERKCDAEQYGADCSKTCTCVRENTLMCAPNTGFCRCKPGFYGDNCELACSKDSYGPNCEKQAMCDWNHASECNPETGSCVCKPGRTGKNCSEPCPLDFYGPNCAHQCQCNQRGVGCDGADGKCQCDRGWTGHRCEHHCPADTFGANCEKRCKCPKGIGCDPITGECTCPAGLQGANCDIGCPEGSYGPGCKLHCKCVNGKCDKETGECTCQPGFFGSDCSTTCSKGKYGESCELSCPCSDASCSKQTGKCLCPLGTKGVSCDQKCDPNTFGFLCQETVTPSPCASTDPKNGVCLSCPPGSSGIHCEHNCPAGSYGDGCQQVCSCADGHGCDPTTGECICEPGYHGKTCSEKCPDGKYGYGCALDCPKCASGSTCDHINGLCICPAGLEGALCTRPCSAGFWGNGCRQVCRCTSEYKQCNAQTGECSCPAGFQGDRCDKPCEDGYYGPDCIKKCKCQGTATSSCNRVSGACHCHPGFTGEFCHALCPESTFGLKCSKECPKDGCGDGYECDAAIGCCHVDQMSCGKAKQEFEALNGAGRSTGLTWFFVLLIVALCGGLGLIALFYRNKYQKEKDPDMPTVSFHKAPNNDEGREFQNPLYSRQSVFPDSDAFSSENNGNHQGGPPNGLLTLEEEELENKKIHGRSAAGRGNNDYASLDEVAGEGSSSSASASASRRGLNSSEQSRRPLLEEHDEEEFDEPHENSISPAHAVTTSNHNENPYADISSPDPVTQNSANKKRAQDNLYT
partner: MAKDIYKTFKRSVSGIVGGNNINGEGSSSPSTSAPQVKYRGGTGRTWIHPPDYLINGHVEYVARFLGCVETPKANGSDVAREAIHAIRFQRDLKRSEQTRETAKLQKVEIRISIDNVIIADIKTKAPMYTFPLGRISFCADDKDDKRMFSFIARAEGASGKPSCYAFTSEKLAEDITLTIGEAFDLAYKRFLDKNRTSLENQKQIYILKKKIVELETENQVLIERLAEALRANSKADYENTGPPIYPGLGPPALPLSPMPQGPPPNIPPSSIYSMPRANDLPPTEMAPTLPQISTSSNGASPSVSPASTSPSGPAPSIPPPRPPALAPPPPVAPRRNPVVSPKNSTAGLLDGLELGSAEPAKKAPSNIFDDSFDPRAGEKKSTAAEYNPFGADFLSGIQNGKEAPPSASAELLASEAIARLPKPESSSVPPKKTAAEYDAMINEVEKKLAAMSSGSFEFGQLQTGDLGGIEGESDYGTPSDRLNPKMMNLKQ
B2: Cell death abnormality protein 1 (Caenorhabditis elegans), Q9XWD6 (parent)
chain: B1 chain
partner: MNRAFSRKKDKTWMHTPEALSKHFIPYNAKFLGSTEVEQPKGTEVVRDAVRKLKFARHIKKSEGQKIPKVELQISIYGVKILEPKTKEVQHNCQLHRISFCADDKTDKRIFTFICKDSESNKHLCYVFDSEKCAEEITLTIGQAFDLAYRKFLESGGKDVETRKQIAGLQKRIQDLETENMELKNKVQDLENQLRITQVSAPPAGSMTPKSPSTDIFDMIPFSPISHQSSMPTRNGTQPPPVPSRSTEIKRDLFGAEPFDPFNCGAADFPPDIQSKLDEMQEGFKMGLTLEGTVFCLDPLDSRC

Variants of: B1
Conditions: with ced6_caeel ced-6, O76337

Variant | effect of a mutation on the interaction
N962A | disrupting interaction strength

Variants of: B2
Conditions: with gulp1_human GULP1, Q9UBP9

Variant | effect of a mutation on the interaction
N962A | disrupting interaction strength
